Measurements taken from patent US20170283458A1, “COLLAGEN-BINDING SYNTHETIC PEPTIDOGLYCANS FOR WOUND HEALING” (Symic Biomedical, Inc., priority 2009, published 2017).
Ends that are not written are not given here.

Key:
collagen type III = biological target: T1, collagen type III (Homo sapiens, UniProt P02461); assay: Viscoelastic characterization of collagen III containing gels; format: biochemical; conditions: 1.5 mg/mL collagen (90% collagen III); 1:1 and 5:1 molar ratios
T1 construct: purchased Millipore
T1 sequence (P02461 154-1221 limits assumed): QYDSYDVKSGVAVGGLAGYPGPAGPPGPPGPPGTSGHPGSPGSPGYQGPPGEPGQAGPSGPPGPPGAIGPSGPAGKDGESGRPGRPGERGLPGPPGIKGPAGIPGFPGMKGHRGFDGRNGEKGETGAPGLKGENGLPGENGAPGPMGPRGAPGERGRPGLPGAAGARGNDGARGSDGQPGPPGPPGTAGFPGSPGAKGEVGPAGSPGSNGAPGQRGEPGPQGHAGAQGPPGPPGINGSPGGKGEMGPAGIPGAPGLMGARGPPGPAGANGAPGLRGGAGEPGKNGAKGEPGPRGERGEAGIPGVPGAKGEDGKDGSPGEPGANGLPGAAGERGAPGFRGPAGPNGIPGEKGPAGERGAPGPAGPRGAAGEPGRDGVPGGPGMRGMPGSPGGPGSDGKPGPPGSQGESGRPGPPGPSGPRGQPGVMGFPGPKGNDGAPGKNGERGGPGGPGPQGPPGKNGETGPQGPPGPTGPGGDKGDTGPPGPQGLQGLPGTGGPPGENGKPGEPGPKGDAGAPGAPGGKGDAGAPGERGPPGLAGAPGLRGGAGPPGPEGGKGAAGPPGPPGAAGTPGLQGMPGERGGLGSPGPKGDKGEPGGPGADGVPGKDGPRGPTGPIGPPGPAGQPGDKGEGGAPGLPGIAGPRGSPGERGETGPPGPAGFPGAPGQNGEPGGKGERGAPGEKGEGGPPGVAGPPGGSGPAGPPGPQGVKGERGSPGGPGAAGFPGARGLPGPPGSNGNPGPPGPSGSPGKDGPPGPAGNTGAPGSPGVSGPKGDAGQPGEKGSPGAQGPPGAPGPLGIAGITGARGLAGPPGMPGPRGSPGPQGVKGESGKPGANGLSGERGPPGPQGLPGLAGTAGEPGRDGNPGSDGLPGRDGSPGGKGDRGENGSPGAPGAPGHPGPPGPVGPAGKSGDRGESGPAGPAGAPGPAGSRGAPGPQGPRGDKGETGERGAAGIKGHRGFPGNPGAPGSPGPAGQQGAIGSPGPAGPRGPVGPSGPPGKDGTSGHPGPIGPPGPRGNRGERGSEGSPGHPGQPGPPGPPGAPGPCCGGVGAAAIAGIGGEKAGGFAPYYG
Experimental: Gels containing type III collagen were prepared as in EXAMPLE 16 with the following modifications: treated and untreated gel solutions were prepared using a collagen concentration of 1.5 mg/mL (90% collagen III (Millipore), 10% collagen I), 200 μL samples were pipetted onto 20 mm diameter wettable surfaces of hydrophobic printed slides. These solutions were allowed to gel at 37° C. for 24 hours. Gels were formed from collagen alone, collagen treated with dermatan sulfate (1:1 and 5:1 molar ratio), and collagen treated with the collagen III-binding peptides alone (GSIT and KELN, 5:1 molar ratio) served as controls.

collagen III = biological target: T2, collagen III (Homo sapiens, UniProt P02461); assay: Cryo-SEM measurements on collagen III, void space; format: biochemical; conditions: 1 mg/mL collagen (90% collagen III), 1:1 collagen:peptidoglycan
T2 construct: purchased Millipore
T2 sequence (P02461 154-1221 limits assumed): T1 sequence (P02461 154-1221 limits assumed)
Experimental: Gels for cryo-SEM were formed, as in EXAMPLE 16, directly on the SEM stage and incubated at 37° C. overnight with the following modifications. The collagen concentration was 1 mg/mL (90% collagen III, 10% collagen I). The collagen:DS ratio was 1:1 and the collagen:peptidoglycan ratio was 1:1. The images were recorded as in EXAMPLE 21. The ratio of void volume to fibril volume was measured using a variation of the method in EXAMPLE 21.

collagen = biological target: T3, collagen (Bos taurus, UniProt P02453+P02465); assay: Fibrillogenesis turbidity assay (absorbance at 313 nm); format: biochemical; conditions: 1:1 collagen:additive molar ratio, vs collagen alone
T3 construct: purchased Inamed, Freemont, Calif; Nutragen
T3 sequence (P02453 162-1217 limits assumed): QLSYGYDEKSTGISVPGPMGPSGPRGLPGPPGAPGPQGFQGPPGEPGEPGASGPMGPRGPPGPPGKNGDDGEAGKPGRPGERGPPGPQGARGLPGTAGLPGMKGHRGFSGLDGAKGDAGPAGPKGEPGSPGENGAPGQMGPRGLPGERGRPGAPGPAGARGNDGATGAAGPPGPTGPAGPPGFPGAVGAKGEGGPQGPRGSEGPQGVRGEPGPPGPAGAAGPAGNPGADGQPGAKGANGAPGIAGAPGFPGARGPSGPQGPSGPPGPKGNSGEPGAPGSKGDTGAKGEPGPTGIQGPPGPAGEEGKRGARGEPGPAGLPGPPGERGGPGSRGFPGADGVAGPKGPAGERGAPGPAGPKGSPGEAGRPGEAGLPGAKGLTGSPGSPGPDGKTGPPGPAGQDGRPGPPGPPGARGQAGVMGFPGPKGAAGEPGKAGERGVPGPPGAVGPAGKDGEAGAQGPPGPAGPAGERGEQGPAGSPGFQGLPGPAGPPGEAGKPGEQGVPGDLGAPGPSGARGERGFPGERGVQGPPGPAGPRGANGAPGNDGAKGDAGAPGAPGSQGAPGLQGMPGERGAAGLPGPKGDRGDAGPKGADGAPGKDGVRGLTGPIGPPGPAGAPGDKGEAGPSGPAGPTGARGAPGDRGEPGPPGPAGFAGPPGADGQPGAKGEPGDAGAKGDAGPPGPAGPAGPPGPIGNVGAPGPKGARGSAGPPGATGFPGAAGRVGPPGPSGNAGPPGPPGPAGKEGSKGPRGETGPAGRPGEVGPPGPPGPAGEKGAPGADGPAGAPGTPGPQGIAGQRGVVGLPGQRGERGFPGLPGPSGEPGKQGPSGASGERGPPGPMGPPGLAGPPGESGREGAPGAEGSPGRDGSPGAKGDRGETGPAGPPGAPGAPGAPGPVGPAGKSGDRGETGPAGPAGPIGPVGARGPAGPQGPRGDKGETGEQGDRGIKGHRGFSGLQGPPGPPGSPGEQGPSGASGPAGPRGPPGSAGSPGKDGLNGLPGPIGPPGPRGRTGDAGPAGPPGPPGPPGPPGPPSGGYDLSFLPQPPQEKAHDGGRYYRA
T3 sequence (P02465 80-1117 limits assumed): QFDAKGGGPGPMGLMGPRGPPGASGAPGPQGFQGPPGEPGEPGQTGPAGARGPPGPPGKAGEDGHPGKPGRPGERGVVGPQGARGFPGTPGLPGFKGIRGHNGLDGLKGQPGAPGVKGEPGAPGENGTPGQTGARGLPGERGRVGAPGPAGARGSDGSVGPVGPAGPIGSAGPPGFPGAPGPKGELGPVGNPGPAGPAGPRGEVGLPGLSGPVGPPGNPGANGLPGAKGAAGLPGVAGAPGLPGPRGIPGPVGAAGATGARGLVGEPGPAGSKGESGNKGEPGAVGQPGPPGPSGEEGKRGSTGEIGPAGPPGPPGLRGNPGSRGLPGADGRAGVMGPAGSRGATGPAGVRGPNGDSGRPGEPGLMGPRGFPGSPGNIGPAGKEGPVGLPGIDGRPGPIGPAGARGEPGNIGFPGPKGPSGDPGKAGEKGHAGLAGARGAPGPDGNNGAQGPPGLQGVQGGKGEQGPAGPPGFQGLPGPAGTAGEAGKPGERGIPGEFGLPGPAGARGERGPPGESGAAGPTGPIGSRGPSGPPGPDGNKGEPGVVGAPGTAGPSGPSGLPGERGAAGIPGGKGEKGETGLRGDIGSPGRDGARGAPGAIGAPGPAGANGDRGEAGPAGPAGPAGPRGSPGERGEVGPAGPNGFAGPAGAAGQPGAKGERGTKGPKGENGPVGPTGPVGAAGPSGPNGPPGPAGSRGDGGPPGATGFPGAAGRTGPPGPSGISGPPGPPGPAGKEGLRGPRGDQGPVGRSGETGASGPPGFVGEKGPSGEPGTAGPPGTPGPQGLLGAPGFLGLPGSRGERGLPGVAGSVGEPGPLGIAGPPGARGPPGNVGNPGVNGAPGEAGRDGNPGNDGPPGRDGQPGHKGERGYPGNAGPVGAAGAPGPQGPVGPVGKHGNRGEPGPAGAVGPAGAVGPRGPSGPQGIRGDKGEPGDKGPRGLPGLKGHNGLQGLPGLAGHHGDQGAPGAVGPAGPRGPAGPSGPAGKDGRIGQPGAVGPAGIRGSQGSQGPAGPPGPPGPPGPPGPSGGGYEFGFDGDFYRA
Experimental: (§1) Gels were made with Nutragen collagen (Inamed, Freemont, Calif.) at a final concentration of 4 mg/mL collagen. Nutragen stock is 6.4 mg/mL in 10 mM HCl. Gel preparation was performed on ice, and fresh samples were made before each test. The collagen solution was adjusted to physiologic pH and salt concentration, by adding appropriate volumes of 10×PBS (phosphate buffered saline), 1×PBS, and 1M NaOH. For most experiments, samples of DS, decorin, DS-SILY, or DS-Dc13 were added at a 10:1 collagen:treatment molar ratio by a final 1×PBS addition (equal volumes across treatments) in which the test samples were dissolved at appropriate concentrations. In this way, samples are constantly kept at pH 7.4 and physiologic salt concentration. Collagen-alone samples received a 1×PBS addition with no sample dissolved. Fibrillogenesis will be induced by incubating neutralized collagen solutions at 37° C. overnight in a humidified chamber to avoid dehydration. Gel solutions with collagen:treatment molar ratios of other than 10:1 were prepared similarly.
Collagen fibrillogenesis was monitored by measuring turbidity related absorbance at 313 nm providing information on rate of fibrillogenesis and fibril diameter. Gel solutions were prepared as described in EXAMPLE 16 (4 mg/mL collagen, 10:1 collagen:treatment, unless otherwise indicated) and 50 uL/well were added at 4° C. to a 384-well plate. The plate was kept at 4° C. for 4 hours before initiating fibril formation. A SpectraMax M5 at 37° C. was used to measure absorbance at 313 nm at 30 s intervals for 6 hours.
A fibrillogenesis assay as described for DS-SILY, EXAMPLE 19, performed with the conjugate DS-Dc13.

[1] = test system: Human aortic smooth muscle cells; assay: Collagen remodeling: hydroxyproline content in medium of cell-seeded collagen gels; format: cell-based; conditions: vs collagen alone; cultures up to 30 days
Experimental: Following a method by Grassl, et al. (Grassl, et al., Journal of Biomedical Materials Research 2002, 60, (4), 607-612), which is herein incorporated in its entirety, collagen gels with or without synthetic PG mimics were formed as described in EXAMPLE 16. Human aortic smooth muscle cells (Cascade Biologics, Portland, Oreg.) were seeded within collagen gels by adding 4×10^6 cells/mL to the neutralized collagen solution prior to incubation. The cell-collagen solutions were pipetted into an 8-well Lab-Tek chamber slide and incubated in a humidified 37° C. and 5% CO2 incubator. After gelation, the cell-collagen gels will be covered with 1 mL Medium 231 as prescribed by Cascade. Every 3-4 days, the medium was removed from the samples and the hydroxyproline content measured by a standard hydroxyproline assay (Reddy, 1996).
To measure degraded collagen in the supernatant medium, the sample was lyophilized, the sample hydrolyzed in 2M NaOH at 120° C. for 20 min. After cooling, free hydroxyproline was oxidized by adding chloramine-T (Sigma) and reacting for 25 min at room temperature. Ehrlich's aldehyde reagent (Sigma) was added and allowed to react for 20 min at 65° C. and followed by reading the absorbance at 550 nm on an M-5 spectrophotometer (Molecular Devices). […] Cultures were incubated for up to 30 days and three samples of each treatment measured. […]

collagen I = biological target: T4, collagen I (Bos taurus, UniProt P02453+P02465); assay: Cryo-SEM measurements on collagen I, fibril diameter; format: biochemical; conditions: 4 mg/mL collagen, 10:1 collagen:treatment, cryo-SEM 20,000×
T4 construct: purchased Inamed, Freemont, Calif; Nutragen
T4 sequence (P02453 162-1217 limits assumed): as the sequence (P02453 162-1217 limits assumed) above
T4 sequence (P02465 80-1117 limits assumed): as the sequence (P02465 80-1117 limits assumed) above
Experimental: as §1
Gels for cryo-SEM were formed, as in EXAMPLE 16, directly on the SEM stage and incubated at 37° C. overnight. The stages were then secured in a cryo-holder and plunged into liquid nitrogen slush. Samples were then transferred to a Gatan Alto 2500 pre-chamber cooled to −170° C. under vacuum. A free-break surface was created with a cooled scalpel, and each sample evaporated under sublimation conditions for 20 min. The sample was coated by platinum sputter coating for 120 s. Samples were transferred to the cryo-stage at −130° C. and regions with similar orientation were imaged for comparison across treatments. Analysis of the images was performed to determine the fibril diameter distribution, presented in histograms adjacent the corresponding image in FIG. 14, and average fibril diameter, FIG. 17 an 18;. Fibril diameter was calculated using ImageJ software (NIH) measuring individual fibrils by hand (drawing a line across fibrils and measuring its length after properly setting the scale). At least 45 independent fibril measurement were recorded for average fibril diameter calculations.

Human dermal fibroblasts = assay: TGF-β1 production by human dermal fibroblasts (ELISA); format: cell-based; conditions: 1.4 μM treatment, 48 hours
Experimental: Human dermal fibroblasts (Cascade Biologics) were seeded onto 96-well tissue culture polystyrene plates at a seeding density of 1.83×10^3 cells/well. Cells adhered overnight and cell medium was aspirated. 100 μL/well of cell medium containing a final concentration of 1.4 μM treatment delivered from a concentrated solution of treatment in 1×PBS was added to the cells. After 48 hours, cell medium was removed and frozen at −80 C until further testing. TGF-β1 was measured by ELISA using a kit and protocol from R&D Systems.

[2] = test system: Human coronary artery smooth muscle cells (HCA SMC); assay: Gel compaction by smooth muscle cells in collagen gels; format: cell-based; conditions: Days 3 and 5
Experimental: Human coronary artery smooth muscle cells (HCA SMC) (Cascade Biologics) were cultured in growth medium (Medium 231 supplemented with smooth muscle growth factor). Cells from passage 3 were used for all experiments. Differentiation medium (Medium 231 supplemented with 1% FBS and 1× pen/strep) was used for all experiments unless otherwise noted.
Collagen gels were prepared with each additive as described with the exception that the 1×PBS example addition was omitted to accommodate the addition of cells in media. After incubating on ice for 30 min, HCA SMCs in differentiation medium were added to the gel solutions to a final concentration of 1×10^6 cells/mL. Gels were formed in quadruplicate in 48-well non-tissue culture treated plates (Costar) for 6 hrs before adding 500 μL/well differentiation medium. Gels were freed from the well edges after 24 hrs. Medium was changed every 2-3 days and images for compaction were taken at the same time points using a Gel Doc System (Bio-Rad). The cross-sectional area of circular gels correlating to degree of compaction was determined using ImageJ software (NIH). Gels containing no cells were used as a negative control and cells in collagen gels absent additive were used as a positive control. […] By day 10 all gels had compacted to approximately 10% of the original gel area, and differences between additives were small.

In the case of “DS-GSIT: dermatan sulfate conjugated to GSIT peptide GSITTIDVPWNVGC (also: dermatan sulfate conjugate, site not given here)”, the “viscoelastic properties of gels formed with collagen type III” value (collagen type III) is reported as “can influence the viscoelastic properties of gels formed with collagen type III” and the void space (collagen III) is reported as “decrease void space (increase fibril diameter and branching)”.

With “DS-KELN: dermatan sulfate conjugated to KELN peptide KELNLVYTGC (also: dermatan sulfate conjugate, site not given here)” the “viscoelastic properties of gels formed with collagen type III” value (collagen type III) was “can influence the viscoelastic properties of gels formed with collagen type III” and the void space (collagen III) was “decrease void space (increase fibril diameter and branching)”.

In the case of SYIRIADTNITGC [Dc13], the effect on fibrillogenesis (collagen) is reported as “little effect on fibrillogenesis compared to collagen alone” and the “collagen degradation measured by hydroxyproline content in cell medium” value [1] is reported as “greater collagen degradation compared to collagen alone”.

B1: decorin: proteoglycan known to influence collagen fibrillogenesis (protein, UniProt P07585 31-359, looked up)
Decorin: DEASGIGPEVPDDRDFEPSLGPVCPFRCQCHLRVVQCSDLGLDKVPKDLPPDTTLLDLQNNKITEIKDGDFKNLKNLHALILVNNKISKVSPGAFTPLVKLERLYLSKNQLKELPEKMPKTLQELRAHENEITKVRKVTFNGLNQMIVIELGTNPLKSSGIENGAFQGMKKLSYIRIADTNITSIPQGLPPSLTELHLDGNKISRVDAASLKGLNNLAKLGLSFNSISAVDNGSLANTPHLRELHLDNNKLTRVPGGLAEHKYIQVVYLHNNNISVVGSSDFCPPGHNTKKASYSGVSLFSNPVQYWEIQPSTFRCVYVRSAIQLGNYK
For B1, the average fibril diameter (collagen I) was “significant decrease in average fibril diameter”, the “TGF-β1 in cell medium” value (Human dermal fibroblasts) was “significantly decreased TGF-β1” and the “gel compaction at early time points” value [2] was “significantly compacted more than gels made of collagen alone or collagen with dermatan sulfate”.
